Laboratory results from patent publication US6277622.

Molecular target: recombinant tropoelastin (human) (UniProt P15502)

With “recombinant human lysyl oxidase derived from the plasmid p3dL^m2 (enzyme)” the percentage of total lysine in the precipitate (amino acid analysis) after 2 hrs at 37 C; formation of insoluble protein was 2.5 % lysine.
